# Laboratory results reported in IntAct's records for PubMed 15507434.
# B1: Microphthalmia-associated transcription factor (Homo sapiens), O75030 (parent)
# chain: MQSESGIVPDFEVGEEFHEEPKTYYELKSQPLKSSSSAEHPGASKPPISSSSMTSRILLRQQLMREQMQEQERREQQQKLQAAQFMQQRVPVSQTPAINVSVPTTLPSATQVPMEVLKVQTHLENPTKYHIQQAQRQQVKQYLSTTLANKHANQVLSLPCPNQPGDHVMPPVPGSSAPNSPMAMLTLNSNCEKEGFYKFEEQNRAESECPGMNTHSRASCMQMDDVIDDIISLESSYNEEILGLMDPALQMANTLPVSGNLIDLYGNQGLPPPGLTISNSCPANLPNIKRELTACIFPTESEARALAKERQKKDNHNLIERRRRFNINDRIKELGTLIPKSNDPDMRWNKGTILKASVDYIRKLQREQQRAKELENRQKKLEHANRHLLLRIQELEMQARAHGLSLIPSTGLCSPDLVNRIIKQEPVLENCSQDLLQHHADLTCTTTLDLTDGTITFNNNLGTGTEANQAYSVPTKMGSKLEDILMDDTLSPVGVTDPLLSSVSPGASKTSSRRSSMSMEETEHTC
# Variants of: B1
# Conditions: with tfeb_human TFEB
row,effect of a mutation on the interaction,Variant
1,with no effect,MQSESGIVPDFEVGEEFHEEPKTYYELKSQPLKSSSSAEHPGASKPPISSSSMTSRILLRQQLMREQMQEQERREQQQKLQAAQFMQQRVPVSQTPAINVSVPTTLPSATQVPMEVLKVQTHLENPTKYHIQQAQRQQVKQYLSTTLANKHANQVLSLPCPNQPGDHVMPPVPGSSAPNSPMAMLTLNSNCEKEGFYKFEEQNRAESECPGMNTHSRASCMQMDDVIDDIISLESSYNEEILGLMDPALQMANTLPVSGNLIDLYGNQGLPPPGLTISNSCPANLPNIRRELTACIFPTESEARALAKERQKKDNHNLIERRRRFNINDRIKELGTLIPKSNDPDMRWNKGTILKASVDYIRKLQREQQRAKELENRQKKLEHANRHLLLRIQELEMQARAHGLSLIPSTGLCSPDLVNRIIRQEPVLENCSQDLLQHHADLTCTTTLDLTDGTITFNNNLGTGTEANQAYSVPTKMGSKLEDILMDDTLSPVGVTDPLLSSVSPGASKTSSRRSSMSMEETEHTC [K289R;K423R]

# Variants of: B1
# Conditions: with tfe3_human TFE3, P19532
# Sequence of tfe3_human TFE3, P19532 (P19532 whole entry): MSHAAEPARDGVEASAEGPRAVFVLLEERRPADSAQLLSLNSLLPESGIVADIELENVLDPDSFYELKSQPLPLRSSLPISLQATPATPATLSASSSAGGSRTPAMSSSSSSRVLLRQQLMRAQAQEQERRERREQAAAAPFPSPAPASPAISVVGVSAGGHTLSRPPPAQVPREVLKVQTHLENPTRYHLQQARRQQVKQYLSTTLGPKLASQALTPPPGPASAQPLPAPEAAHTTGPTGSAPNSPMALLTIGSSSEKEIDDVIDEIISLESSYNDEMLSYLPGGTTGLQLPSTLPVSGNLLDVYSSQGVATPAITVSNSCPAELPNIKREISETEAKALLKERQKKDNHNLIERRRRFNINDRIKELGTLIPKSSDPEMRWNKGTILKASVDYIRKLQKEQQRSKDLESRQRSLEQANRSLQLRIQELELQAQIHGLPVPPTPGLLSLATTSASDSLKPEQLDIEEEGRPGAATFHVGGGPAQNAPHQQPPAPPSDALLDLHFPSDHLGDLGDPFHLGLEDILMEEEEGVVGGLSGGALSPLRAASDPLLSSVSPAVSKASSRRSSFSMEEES
row,effect of a mutation on the interaction,Variant
1,with no effect,MQSESGIVPDFEVGEEFHEEPKTYYELKSQPLKSSSSAEHPGASKPPISSSSMTSRILLRQQLMREQMQEQERREQQQKLQAAQFMQQRVPVSQTPAINVSVPTTLPSATQVPMEVLKVQTHLENPTKYHIQQAQRQQVKQYLSTTLANKHANQVLSLPCPNQPGDHVMPPVPGSSAPNSPMAMLTLNSNCEKEGFYKFEEQNRAESECPGMNTHSRASCMQMDDVIDDIISLESSYNEEILGLMDPALQMANTLPVSGNLIDLYGNQGLPPPGLTISNSCPANLPNIRRELTACIFPTESEARALAKERQKKDNHNLIERRRRFNINDRIKELGTLIPKSNDPDMRWNKGTILKASVDYIRKLQREQQRAKELENRQKKLEHANRHLLLRIQELEMQARAHGLSLIPSTGLCSPDLVNRIIRQEPVLENCSQDLLQHHADLTCTTTLDLTDGTITFNNNLGTGTEANQAYSVPTKMGSKLEDILMDDTLSPVGVTDPLLSSVSPGASKTSSRRSSMSMEETEHTC [K289R;K423R]
